Results taken from publication PMC7138838, “Gating mechanism of elongating β-ketoacyl-ACP synthases” (Nature Communications, 2020).

B1: FabF (KASII family β-ketoacyl-ACP synthase), wild type (enzyme, E. coli)
chain: MSKRRVVVTGLGMLSPVGNTVESTWKALLAGQSGISLIDHFDTSAYATKFAGLVKDFNCEDIISRKEQRKMDAFIQYGIVAGVQAMQDSGLEITEENATRIGAAIGSGIGGLGLIEENHTSLMNGGPRKISPFFVPSTIVNMVAGHLTIMYGLRGPSISIATACTSGVHNIGHAARIIAYGDADVMVAGGAEKASTPLGVGGFGAARALSTRNDNPQAASRPWDKERDGFVLGDGAGMLVLEEYEHAKKRGAKIYAELVGFGMSSDAYHMTSPPENGAGAALAMANALRDAGIEASQIGYVNAHGTSTPAGDKAEAQAVKTIFGEAASRVLVSSTKSMTGHLLGAAGAVESIYSILALRDQAVPPTINLDNPDEGCDLDFVPHEARQVSGMEYTLCNSFGFGGTNGSLIFKKI
notes: FabF, elongating β-ketoacyl-ACP synthase (KASII family), E. coli; also called wt FabF; source: E. coli BL21, purified (Ni-NTA, thrombin cleavage, Superdex 200); not shown: His8, N-terminal, cleaved

Columns and labels:
[1] = target: FabF F400A (gate removal mutant) (E. coli); experiment: cross-linking; mechanism-based crosslinking, single time point: 40 μM crypto-AcpP, 20 μM FabF, 25 mM Tris, 150 mM NaCl, 10% glycerol, 0.5 mM TCEP, pH 7.4; SDS-PAGE densitometry; efficiency normalised to the average of wt FabF; n = 3
[2] = target: FabF G402A (loop flexibility-modulated mutant) (E. coli); experiment: as above
[3] = target: B1; experiment: as above; conditions: both partners purified
[4] = target: FabF D265A (loop 2 destabilization mutant) (E. coli); experiment: as above
[5] = target: FabF D265N (loop 2 destabilization mutant) (E. coli); experiment: as above
[6] = target: FabF G310F (pocket-blockage mutant) (E. coli); experiment: as above
[7] = target: FabF G310M (pocket-blockage mutant) (E. coli); experiment: as above
[8] = target: B1; experiment: crystal structure; AcpP covalently crosslinked through its pantetheineamide probe (Ser36) to Cys163 of the KS (crypto-AcpP:KS 5:1, 37 °C, 16 h; SEC in 20 mM Tris, 50 mM NaCl, pH 7.4); hanging drop, 6 °C, PEG 8K, 0.1 M sodium cacodylate pH 6.5; conditions: both partners purified
[9] = target: the molecule itself; experiment: as above

| Binder | binding result [3] | crosslinking efficiency normalised to wt FabF [4] [%] | crosslinking efficiency normalised to wt FabF [5] [%] | crosslinking efficiency normalised to wt FabF [6] [%] | crosslinking efficiency normalised to wt FabF [7] [%] | further results |
| --- | --- | --- | --- | --- | --- | --- |
| C8Cl-AcpP (natural protein, E. coli, Ser36 carries a 4'-phosphopantetheineamide arm with the C8 chloroacrylate (chlorovinyl) probe, acyl carrier protein AcpP, E. coli; also called C8Cl (2b); source: E. coli BL21 (DE3), purified; apofied with AcpH, loaded with the C8 chloroacrylate probe by the one-pot chemoenzymatic method, purified by SEC) MSTIEERVKKIIGEQLGVKQEEVTNNASFVEDLGADSLDTVELVMALEEEFDTEIPDEEAEKITTVQAAIDYINGHQA | binds |  |  |  |  | crosslinking efficiency normalised to wt FabF [1]: 133%; crosslinking efficiency normalised to wt FabF [2]: 24% |
| crypto-1a-AcpP (C12AcpP) (natural protein, E. coli, Ser36 carries a 4'-phosphopantetheineamide arm with the C12 α-bromo acyl probe 1a, acyl carrier protein AcpP, E. coli; Called 'native AcpP recombinant protein'; no tag is named; In the crosslinked complexes the α-carbon of the probe is bonded to Cys163 of the KS; also called C12αBr-AcpP; C12αBr (1a); source: E. coli BL21 (DE3), purified (isopropanol precipitation, HiTrap Q, Superdex 75); apofied with AcpH, loaded with probe 1a by the one-pot chemoenzymatic method, purified by …) MSTIEERVKKIIGEQLGVKQEEVTNNASFVEDLGADSLDTVELVMALEEEFDTEIPDEEAEKITTVQAAIDYINGHQA |  | 51 | 64 | 33 | 30 | binding result [8]: binds |
| 1c-AcpP (C2αBr-AcpP) (natural protein, E. coli, Ser36 carries a 4'-phosphopantetheineamide arm with the C2 α-bromo probe 1c, acyl carrier protein AcpP, E. coli; also called C2αBr (1c); crypto-1c-ACP; source: E. coli BL21 (DE3), purified; apofied with AcpH, loaded with probe 1c by the one-pot chemoenzymatic method, purified by SEC) MSTIEERVKKIIGEQLGVKQEEVTNNASFVEDLGADSLDTVELVMALEEEFDTEIPDEEAEKITTVQAAIDYINGHQA | binds | 72 | 77 | 73 | 70 |  |
| C3Cl-AcpP (natural protein, E. coli, Ser36 carries a 4'-phosphopantetheineamide arm with the C3 chloroacrylate (chlorovinyl) probe, acyl carrier protein AcpP, E. coli; also called C3Cl (2a); source: E. coli BL21 (DE3), purified; apofied with AcpH, loaded with the C3 chloroacrylate probe by the one-pot chemoenzymatic method, purified by SEC) MSTIEERVKKIIGEQLGVKQEEVTNNASFVEDLGADSLDTVELVMALEEEFDTEIPDEEAEKITTVQAAIDYINGHQA | binds | 63 | 73 | 85 | 82 | crosslinking efficiency normalised to wt FabF [2]: 87% |
| crypto-1b-AcpP (C16AcpP) (natural protein, E. coli, Ser36 carries a 4'-phosphopantetheineamide arm with the C16 α-bromo acyl probe 1b, acyl carrier protein AcpP, E. coli; Called 'native AcpP recombinant protein'; no tag is named; In the crosslinked complexes the α-carbon of the probe is bonded to Cys163 of the KS; source: E. coli BL21 (DE3), purified (isopropanol precipitation, HiTrap Q, Superdex 75); apofied with AcpH, loaded with probe 1b by the one-pot chemoenzymatic method, purified by SEC) MSTIEERVKKIIGEQLGVKQEEVTNNASFVEDLGADSLDTVELVMALEEEFDTEIPDEEAEKITTVQAAIDYINGHQA |  |  |  |  |  | binding result [8]: binds |
| B1 |  |  |  |  |  | stoichiometry N [9]: 2 |
| FabB (KASI family β-ketoacyl-ACP synthase), wild type (enzyme, E. coli, FabB, elongating β-ketoacyl-ACP synthase (KASI family), E. coli; source: E. coli BL21, purified (Ni-NTA, thrombin cleavage, Superdex 200); not shown: His8, N-terminal, cleaved) MKRAVITGLGIVSSIGNNQQEVLASLREGRSGITFSQELKDSGMRSHVWGNVKLDTTGLIDRKVVRFMSDASIYAFLSMEQAIADAGLSPEAYQNNPRVGLIAGSGGGSPRFQVFGADAMRGPRGLKAVGPYVVTKAMASGVSACLATPFKIHGVNYSISSACATSAHCIGNAVEQIQLGKQDIVFAGGGEELCWEMACEFDAMGALSTKYNDTPEKASRTYDAHRDGFVIAGGGGMVVVEELEHALARGAHIYAEIVGYGATSDGADMVAPSGEGAVRCMKMAMHGVDTPIDYLNSHGTSTPVGDVKELAAIREVFGDKSPAISATKAMTGHSLGAAGVQEAIYSLLMLEHGFIAPSINIEELDEQAAGLNIVTETTDRELTTVMSNSFGFGGTNATLVMRKLKD |  |  |  |  |  | stoichiometry N [9]: 2 |
